Assays:
splenocytes = test: Mitogen and alloantigen stimulation of splenocytes (3H-thymidine incorporation), whole or adherent/nonadherent cocultures; type: cell-based, mice; details: for proliferative responses to Con A, IL-12 and allogeneic stimulation: data not shown
Description: The mitogen and alloantigen stimulation of splenocytes assay was performed as follows: In vitro mitogenic stimulation of splenocytes with […] Con A or 100 U/ml rmIL-12 was performed as described [Kurzawa, cited above]. Proliferative responses to allogeneic antigens (mixed lymphocyte reaction, MLR) was measured when splenocytes from the mice were stimulated with 10^5 mitomycin treated A/J splenocytes. Splenocyte fractionation was performed by allowing 10^5 splenocytes to adhere for 90 minutes in 96 well plates, after which the nonadherent cells were removed and cocultured with adherent cells from different wells for assay. When added, antibodies (XMG6 for IFNγ, XT22 for TNFα, AE5 for IL-10 and C17.8 for IL-12 ) were used at […] final concentration. After 72 hours exposure to mitogen, cultures were pulsed with 1 μCi^3H-thymidine for 16 hours, cells were harvested and ^3H incorporation was measured by scintillation counting. Supernatants from cultures assayed for IFNγ by radioimmunoassay (RIA) (using antibodies AN18 and XMG6 [Wysocka, M. et al. 1995 Eur. J. Immunol. 25:672] were harvested 24 or 72 hours after stimulation.
A. Splenocytes from rmIL-12- and PBS-treated C57BL/6 mice were fractioned by adherence to 96 well plastic plates for 90 minutes. The cells were reconstituted in various combinations of adherent and nonadherent cells by overlaying nonadherent cells on the adherent cells. These cocultures were then stimulated with either 2.5 μg/ml Con A, 100 U/ml IL-12, or 10^5 mitomycin C treated A/J (H-2A) splenocytes, as described in the mitogen/alloantigen assay of Example 1.
B. Cocultures were established from splenic adherent and nonadherent cells of PBS-treated mice or from the adherent cells of rmIL-12-treated mice and nonadherent cells of PBS-treated mice. Antibodies XMG6 (to IFNγ), XT22 (to TNFα), AE5 (to IL-10) and C17.8 (to IL-12 ) were added to a final concentration of […] in cocultures containing adherent cells from spleen of rmIL-12-treated mice, also according to the assay described in Example 1.
Cocultures were established from splenic adherent and nonadherent cells of PBS-treated mice or from the adherent cells of rmIL-12-treated mice and nonadherent cells of PBS-treated mice. Antibodies XMG6 (to IFNγ), XT22 (to TNFα), AE5 (to IL-10) and C17.8 (to IL-12) were added to a final concentration of […] in cocultures containing adherent cells from spleen of rmIL-12-treated mice. An inhibitor of inducible nitric oxide synthase (iNOS), L-NMMA (Sigma), was added to cocultures of adherent cells from rmIL-12 treated mice and nonadherent cells from control mice at a final concentration of […]. Alternatively, D-NMMA (Sigma), a noninhibitory isoform of L-NMMA, was added to other cocultures as a control.

SCK cells [1] = test: SCK.GM cell vaccination followed by SCK tumor cell challenge; type: in vivo, A/J mice; details: rmIL-12 250 ng/day ip days 0-4 and 7-11; challenge two weeks after vaccination
Description: A. Female A/J mice were vaccinated with 10^6 irradiated SCK.GM cells suspended in PBS at 10^7 trypan blue-excluding cells/ml. Cells were irradiated with 6000 rads from a ^137Cs source, and mice were vaccinated with 10^6 cells s.c. (day 0). […] Vaccinated and naive A/J mice were challenged fourteen days after vaccination with 2.5×10^4 trypan blue-excluding SCK cells in the opposite flank to assay for the presence of tumor immunity. Tumorigenesis was scored daily.

SCK cells [2] = test: Irradiated wild-type SCK cell vaccination followed by SCK tumor cell challenge; type: in vivo, A/J mice; details: SCK-vaccinated mice; at 28 days; rmIL-12 alone, or L-NAME/D-NAME given with rmIL-12
Description: Female A/J mice (8 mice per group) were vaccinated with 10^6 irradiated SCK cells and received either PBS, rmIL-12, rmIL-12+L-NAME or rmIL-12 and D-NAME on days 0-4 and 7-11. Mice were challenged fourteen days after vaccination with 2.5×10^4 SCK cells in the opposite flank. Tumorigenesis was scored daily, as described above.

SCK tumors = test: Antitumor activity of rmIL-12 against SCK tumors (tumorigenesis scored daily); type: in vivo, A/J mice; details: L-NAME given with rmIL-12
Description: Female A/J mice were injected with 2.5×10^4 SCK cells and either PBS, rmIL-12, rmIL-12+L-NAME or rmIL-12 and D-NAME on days 0-4 and 7-11. Tumorigenesis was scored daily, as described above.

[3] = Splenomegaly after a course of rmIL-12; type: in vivo; details: iNOS−/− mice, like wild-type mice
SCK cells [4] = details: A/J mice with established SCK immunity; given just prior to tumor cell rechallenge; cited from earlier work

B1: rmIL-12: recombinant murine Interleukin-12, heterodimeric cytokine, from Genetics Institute (protein, UniProt P43431 23-215; P43432 23-335, looked up)
Interleukin-12 subunit alpha: RVIPVSGPARCLSQSRNLLKTTDDMVKTAREKLKHYSCTAEDIDHEDITRDQTSTLKTCLPLELHKNESCLATRETSSTTRGSCLPPQKTSLMMTLCLGSIYEDLKMYQTEFQAINAALQNHNHQQIILDKGMLVAIDELMQSLNHNGETLRQKPPVGEADPYRVKMKLCILLHAFSTRVVTINRVMGYLSSA
Interleukin-12 subunit beta: MWELEKDVYVVEVDWTPDAPGETVNLTCDTPEEDDITWTSDQRHGVIGSGKTLTITVKEFLDAGQYTCHKGGETLSHSHLLLHKKENGIWSTEILKNFKNKTFLKCEAPNYSGRFTCSWLVQRNMDLKFNIKSSSSSPDSRAVTCGMASLSAEKVTLDQRDYEKYSVSCQEDVTCPTAEETLPIELALEARQQNKYENYSTSFFIRDIIKPDPPKNLQMKPLKNSQVEVSWEYPDSWSTPHSYFSLKFFVRIQRKKEKMKETEEGCNQKGAFLVEKTSTEVQCKGGNVCVQAQDRYYNSSCSKWACVPCRVRS
mitogenic responses (splenocytes; cultures of adherent and nonadherent splenocytes both from rmIL-12 treated mice, vs. PBS-treated): suppressed mitogenic responses | proliferative responses (Con A, IL-12 or alloantigen) (splenocytes; nonadherent cells from control mice mixed with adherent cells from rmIL-12 treated mice): severely impaired | mitogenic responses (splenocytes; nonadherent cells from rmIL-12 treated mice cocultured with adherent cells from PBS-treated mice): normal mitogenic responses | in vitro mitogenic and alloproliferative responses (splenocytes; splenocytes from rmIL-12-treated HKB-vaccinated C57BL/6 mice): suppressed | proliferative responses to Con A, IL-12 and allogeneic stimulation (splenocytes; splenocytes from rmIL-12-treated TNFR−/− mice): suppressed | proliferative responses after stimulation with mitogens or alloantigens (splenocytes; splenocytes from rmIL-12-treated iNOS−/− mice): proliferative responses like those of splenocytes from control mice | proliferative responses to Con A, IL-12 and allogeneic stimulation (splenocytes; splenocytes from rmIL-12 treated IFNγ−/− mice): normal proliferative responses | Effect on SCK.GM vaccine protection from tumor cell challenge (SCK cells [1]): severely impaired this protection | level of protection (SCK cells [2]): 75% | median days to tumor appearance (SCK tumors; 2.5×10^4 SCK cells, treatment days 0-4 and 7-11, 9 days without rmIL-12): 14 days | delay of tumor appearance vs. untreated mice (SCK tumors; treatment started on day of SCK cell injection): about 5 days | splenomegaly [3]: induced splenomegaly | Effect on tumor protection (SCK cells [4]): impairs tumor protection

Reference: patent publication US6375944B1, “Methods and compositions for enhancing the immunostimulatory effect of interleukin-12” (The Wistar Institute of Anatomy and Biology, priority 1998, dated 2002)
